{"source": "patent US20220280440A1", "about": "“METHOD FOR THE MANUFACTURE OF A DOSAGE FORM WITH MUCOADHESIVE PROPERTIES FOR BUCCAL ADMINISTRATION OF BIOLOGICS” (UNIVERSIDAD DE CHILE, priority 2016, published 2022)", "key": {"[1]": {"assay": "Effect of the inkjet printing process on nanosystems (properties before and after printing on inert substrate)", "assay_type": "physicochemical", "conditions": "lysozyme in nanoparticles", "procedure": "The process of printing on an inert substrate using a suspension with a nanosystem as carriers of biologic drug models was performed using polymeric nanoparticles. The suspension was incorporated into a cartridge for inkjet printing. The particle properties were measured before and after the printing process. […] Results are expressed as means (standard deviation). Except for an increase in the polydispersity index (PDI), the particles maintain their properties during the printing process and define the methodology for incorporating drug loaded nanoparticles on polymer films.\nThe obtained printing inks with lysozyme or insulin were loaded into Hewlett Packard cartridges compatible with Hewlett Packard Deskjet 1000 printer, and it was installed to run the printing experiments. Using a commercial software tool appropriate for the task, surfaces of 3×3 cm^2 were printed on an inert substrate to evaluate the effect of the printing process on the polymeric nanoparticles. After the printing process, the printed polymeric nanoparticles were recovered by refluxing with 1 mL of Milli-Q® water, and their physicochemical properties in terms of size, polydispersity index, and zeta potential were determined."}, "[2]": {"assay": "FTIR of lysozyme inks with or without glycerol", "assay_type": "physicochemical", "conditions": "FIG. 13", "procedure": "On the other hand, since these inks require the addition of glycerol as a viscosity agent, the evaluation of lysozyme inks was performed with or without glycerol by infrared spectroscopy Fourier transform (FTIR)."}}}
{"substance": "lysozyme", "values": [{"measurement": "Amount immobilized at the particle and biologic structure during the printing process (load and protein activity studies)", "setting": "[1]", "value": "preserved during the printing process"}, {"measurement": "Major bands of the FTIR spectra, ink with or without glycerol", "setting": "[2]", "value": "does not change during the process"}]}
